The record followed here is patent US20230203146A1 (Boehringer Ingelheim, published 2023).

For assay [1], the target named is T1, FLAG-tagged mouse Ang2 (mouse, UniProt O35608 19-496).
T1 construct: N-terminally FLAG-tagged, conditioned medium of HEK293T cells; also called mAng2; FLAG-mAng2
T1 sequence: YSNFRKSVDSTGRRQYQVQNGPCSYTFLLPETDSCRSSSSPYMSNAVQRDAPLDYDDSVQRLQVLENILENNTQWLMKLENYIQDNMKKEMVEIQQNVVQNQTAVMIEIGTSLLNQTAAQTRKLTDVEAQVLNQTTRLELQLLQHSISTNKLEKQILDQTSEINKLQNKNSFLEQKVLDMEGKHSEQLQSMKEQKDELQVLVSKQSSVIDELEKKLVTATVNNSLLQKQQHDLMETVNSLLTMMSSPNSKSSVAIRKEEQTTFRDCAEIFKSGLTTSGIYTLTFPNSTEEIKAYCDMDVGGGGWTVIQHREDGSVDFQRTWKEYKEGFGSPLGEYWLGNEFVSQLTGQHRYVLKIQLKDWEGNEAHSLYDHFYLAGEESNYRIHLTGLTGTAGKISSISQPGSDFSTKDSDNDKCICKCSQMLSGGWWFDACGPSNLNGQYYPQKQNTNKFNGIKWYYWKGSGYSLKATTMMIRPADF
Nature of the assay: competition ELISA: FLAG-mAng2 binding to coated mTie2-Fc. The procedure: (§1) In brief, 2 μg/mL of recombinant mouse Tie2-Fc or cyno Tie2-Fc is coated overnight at 4° C. in a 96-well MaxiSorp plate (Nunc, Wiesbaden, Germany). Coated wells are blocked with a 1% casein solution.
A general note: In an ELISA, binding on a coated surface is turned into a signal by an enzyme label.

The target of assay [2] is T2, FLAG-tagged cynomolgus Ang2 (cynomolgus, UniProt O15123 19-496 (human entry), limits assumed).
T2 construct: N-terminally FLAG-tagged, conditioned medium of HEK293T cells; also called cAng2; FLAG-cAng2
T2 chain: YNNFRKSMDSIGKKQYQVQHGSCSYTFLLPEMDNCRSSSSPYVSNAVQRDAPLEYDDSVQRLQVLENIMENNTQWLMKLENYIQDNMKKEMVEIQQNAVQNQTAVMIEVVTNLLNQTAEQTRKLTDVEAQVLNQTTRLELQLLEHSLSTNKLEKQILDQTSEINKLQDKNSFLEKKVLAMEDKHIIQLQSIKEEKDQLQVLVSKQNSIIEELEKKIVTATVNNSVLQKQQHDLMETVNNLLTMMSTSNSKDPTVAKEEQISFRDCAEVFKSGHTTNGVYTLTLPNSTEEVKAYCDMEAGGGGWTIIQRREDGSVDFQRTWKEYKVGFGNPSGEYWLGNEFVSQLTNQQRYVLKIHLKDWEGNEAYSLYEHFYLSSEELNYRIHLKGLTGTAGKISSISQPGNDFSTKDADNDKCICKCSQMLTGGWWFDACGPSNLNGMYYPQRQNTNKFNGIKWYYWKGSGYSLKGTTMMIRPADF
Description: competition ELISA: FLAG-cAng2 binding to coated cTie2-Fc.

For assay [3], the target named is T1, FLAG-tagged mouse Ang2. Nature of the assay: competition ELISA: FLAG-mAng2 binding to coated mTie2-Fc. The procedure:
as §1
This is another data set of the same source.

For assay [4], the target named is T2, FLAG-tagged cynomolgus Ang2. Nature of the assay: competition ELISA: FLAG-cAng2 binding to coated cTie2-Fc. How it is done:
as §1

For assay [5], the target named is T3, FLAG-tagged recombinant human Ang1 (Alexis Biochemicals) (human, UniProt Q15389 20-498, limits assumed).
T3 construct: Bought reagent; also called hAng1; FLAG-hAng1
T3 sequence (looked up): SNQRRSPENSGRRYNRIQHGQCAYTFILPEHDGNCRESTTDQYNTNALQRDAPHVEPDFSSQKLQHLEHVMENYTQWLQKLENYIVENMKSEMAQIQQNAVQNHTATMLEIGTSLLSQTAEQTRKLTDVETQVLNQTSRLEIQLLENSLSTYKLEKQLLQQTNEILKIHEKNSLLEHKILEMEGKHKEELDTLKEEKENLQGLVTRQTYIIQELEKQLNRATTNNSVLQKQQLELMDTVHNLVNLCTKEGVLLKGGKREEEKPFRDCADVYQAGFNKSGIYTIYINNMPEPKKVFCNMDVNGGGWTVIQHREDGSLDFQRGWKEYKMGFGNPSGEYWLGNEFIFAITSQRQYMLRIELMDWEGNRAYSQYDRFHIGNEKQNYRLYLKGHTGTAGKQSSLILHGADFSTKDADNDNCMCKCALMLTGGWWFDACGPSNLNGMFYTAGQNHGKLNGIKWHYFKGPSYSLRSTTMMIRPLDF
Description: competition ELISA, periplasmic extract, FLAG-hAng1 on hTie2/Fc. How it is done: In brief, human Tie2/Fc chimera (R&D Systems, Minneapolis, Minn., USA) is biotinylated using N-hydroxysulfosuccinimide ester of biotin (Thermo Fisher Scientific, Rockford, Ill., USA). […] To this mixture, the Acceptor beads and 0.3 nM biotinylated human Tie2/Fc chimeras are added and further incubated for 2 hours at room temperature. Finally, streptavidin conjugated Donor beads (Perkin Elmer, Waltham, Mass., US) are added and the mixture is incubated for an additional 2 hours at room temperature. Assay buffer is PBS+0.03% Tween-20+0.1% BSA. Fluorescence is measured using the Envision Multilabel Plate reader (Perkin Elmer, Waltham, Mass., USA) using an excitation wavelength of 680 nm and an emission wavelength of 520 nm. […] In brief, human or mouse Tie2/Fc chimera (R&D Systems, Minneapolis, Minn., USA) are immobilized at 2 μg/mL overnight at 4° C. in a 96-well MaxiSorp plate (Nunc, Wiesbaden, Germany). Wells are blocked with a 1% casein solution. […] This mixture is added to the Tie2/Fc coated well and incubated for 2 hours at room temperature. Residual binding of Ang is detected using HRP-conjugated anti-FLAG M2 antibody (Sigma, St Louis, Mo., USA).

Where two headings read alike, the source gives them in different places.

In general, IC50 refers to the point on the concentration scale where inhibition reaches its midpoint. Lower therefore signals inhibition by little substance.

B1: VHH 00908 (VHH, not shown: small tags and cut ends)
VHH: EVQLVESGGGLVQPGGSLRLSCAASGITLDDYAIGWFRQAPGKEREGVSSIRDNGGSTYYADSVKGRFTISSDNSKNTVYLQMNSLRPEDTAVYYCAAVPAGRLRYGEQWYPIYEYDAWGQGTLVTVSS
Turning to B1, the half-inhibitory concentration (IC50) in the assay with FLAG-tagged mouse Ang2 [1] came out at 85 pM; in assay [2] it was 79 pM; with FLAG-tagged mouse Ang2 [3], 85 pM; in assay [4], 79 pM.

B2: VHH 1E01 (VHH)
VHH: EVQLVESGGGLVQPGGSLRLSCVHSGTISSTHAMGWYRQAPGKQREHVATFTNRGSTYYAGSVKGRFTISRDNAKNTMYLQMNSLKPEDTAVYYCNTGPYWGQGTQVTVSS
notes: Tested as periplasmic extract; also called 001E01; not shown: C-terminal c-myc tag and His6 tag
Take B2: in assay [5], the “% inh” value came out at 4%.

B3: VHH 12A08 (VHH)
VHH: EVQLVESGRGLVQAGGSLRLSCAASGSIFSINAMLWYRQAPGKQRELVAAITSGGSTNYADSVKGRFTISRDNAKNTVYLQMNSLKPEDTAVYYCAADSDYSSDYYYWGQGTQVTVSS
notes: Tested as periplasmic extract; also called 012A08; not shown: C-terminal c-myc tag and His6 tag
On to B3, for which the “% inh” value in assay [5] worked out at 3%.

B4: VHH 25B01 (VHH)
VHH: EVQLVESGGGLVQAGGSLRLSCAASGFTFDDYAIGWFRQAPGKEREGVSCISSSDGSTYYADSVKGRFTISSDNAKNTVYLQMNSLKPEDTAVYYCAAAWGASRLPIGTMPPYEYDYWGQGTQVTVSS
notes: Tested as periplasmic extract; also called 025B01; not shown: C-terminal c-myc tag and His6 tag
Consider B4, for which the “% inh” value in assay [5] was 4%.
